Experimental data published in article PMC7494861, “Characterization of the nucleotide-binding domain NsrF from the BceAB-type ABC-transporter NsrFP from the human pathogen Streptococcus agalactiae” (Scientific Reports, 2020).

How the values were obtained:
Assay in all cases: purified protein
Format in all cases: biochemical, Streptococcus agalactiae
Settings in all cases: 100 mM HEPES pH 7, 10 mM Mg2+, 0 mM NaCl, 30 °C, cooperative
[1] = test system: Nc1nc2c(ncn2[C@@H]2O[C@H](COP(=O)(O)OP(=O)(O)OP(=O)(O)O)[C@@H](O)[C@H]2O)c(=O)[nH]1
Description: (§1) malachite green phosphate release, Hill fit on SaNsrF (SaNsrFWT)

[2] = test system: O=c1ccn([C@@H]2O[C@H](COP(=O)(O)OP(=O)(O)OP(=O)(O)O)[C@@H](O)[C@H]2O)c(=O)[nH]1
Description: as §1

[3] = test system: Nc1ccn([C@@H]2O[C@H](COP(=O)(O)OP(=O)(O)OP(=O)(O)O)[C@@H](O)[C@H]2O)c(=O)n1
Description: as §1

Q: Which K0.5 [1] does the source give for “SaNsrF (SaNsrFWT) (Streptococcus agalactiae 2603V/R)” here?
A: 0.69 ± 0.07 mM

Q: What about the Vmax [1] of the same substance?
A: 221.6 ± 11.1 nmol/min/mg

Q: And the K0.5 [2]?
A: 0.90 ± 0.13 mM

Q: What about the Vmax [2] of the same substance?
A: 314.8 ± 23.4 nmol/min/mg

Q: And the K0.5 [3]?
A: 1.23 ± 0.20 mM

Q: What about the Vmax [3] of the same substance?
A: 339.0 ± 30.4 nmol/min/mg
